Where no end group is shown, it is not given here.
Key:
[1] = tested on: E. coli (ATCC #10536); type: cell-based; conditions: colony forming unit assay, phosphate buffer, 37°C; by extrapolation of concentration curves
Protocol: (§1) Antimicrobial Assays. The antimicrobial activities were tested using a colony forming unit assay. E. coli (ATCC #10536) was grown in LB medium at 37° C. to an OD600 of 0.5. The cells were washed 3 times in phosphate buffer (pH 7.2) and resuspended in 1 ml of the same buffer. The cells were then diluted 1:100 using two 10 fold serial dilutions. Following dilutions, 50 μl of cells were incubated with 100 μl of sample protein and 350 μl of phosphate buffer at 37° C. In place of sample protein, 100 μl of 10 mM phosphate buffered saline (pH 7.4) was used as the control sample. Following incubation, the cells were diluted 1:10 before plating 100 μl-200 μl in quadruplicates. The plates were incubated overnight at 37° C. and colony forming units were counted. The percentage of cell death was expressed using the following equation, [1-(cells surviving peptide)/(average colonies counted from PBS control)]×100%. The LC50 is defined as the lethal concentration of peptide required to kill 50 percent of the present bacteria and was determined for each Lacritin variant by extrapolation of concentration curves.
Lethal concentrations (μg/ml) of lacritin constructs required to kill 50 percent of E. coli in the antimicrobial assay. Lacritin is full length mature lacritin without signal peptide. N-XX denotes the number of amino acids removed from the N-terminal of mature lacritin and C-XX denotes the number of amino acids removed from the C-terminal of mature lacritin.

[2] = tested on: Staphylococcus epidermidis; test: Colony forming unit antimicrobial assay against pathogenic bacteria (Table 3); type: cell-based; conditions: 37.6 μg/ml; 10 mM phosphate buffer, 3 hours
Protocol: as §1
(§2) Purified lacritin variant proteins at the concentrations shown were incubated with selected pathogenic bacteria in 10 mM phosphate buffer for 3 hours as described in the antimicrobial assay. The total number of colonies were counted and the percent cell death determined using [1-(colonies surviving peptide incubation)/(colony count from PBS control)]×100. N-XX denotes the number of amino acids removed from the N-terminal of mature lacritin.

[3] = tested on: Pseudomonas aeruginosa; test: as above; type: cell-based; conditions: 10 mM phosphate buffer, 3 hours
Protocol: as §1, §2

[4] = tested on: E. coli; test: Antimicrobial activity assay, colony forming units after incubation with E. coli (Example 2, FIGS. 4 and 5); type: cell-based; conditions: for % of the bacteria killed: four hours incubation; for CFU as % of the control / average colony forming units: four hours incubation at 37°C
Protocol: Purified recombinant lacritin variant proteins were assayed for antimicrobial activity by standard methods that involves an incubation period with actively growing bacteria and the protein of interest followed by plating on agar plates supplemented with growth media. The agar plates are incubated overnight and individual colonies are counted and expressed as Colony Forming Units (CFUs). The number of CFUs can be compared to the same bacteria incubated without protein.
E. coli at exponential growth (OD600=0.5) were washed twice in Phosphate Buffer (PB) diluted to a concentration of 1×10^6 cells/ml in PB and incubated with PB (no protein) or test proteins at 37° C. Samples were diluted and plated in triplicate on LB plates after four hours of incubation. Plates were grown at 37° C. overnight and counted. Colony counts were averaged and plotted as CFU/ml×10^3. The incubation volume was 0.5 ml at 25 mM NaCl.
C-25 was tested at a concentration of 53 μg/ml and N-71 was tested at various concentrations in μg/ml as shown in parentheses. pLAC is full length recombinant mature lacritin, and was tested at a concentration of 46 μg/ml. Bacteria incubated with buffer alone (the control) produced an average of 77×10^3 CFU/ml. Incubation with the lacritin variant C-25 produced an average of 79×10^3 or 103% of the control. […] The full-length recombinant lacritin protein (PLAC) produced an average of 38×10^3 CFU/ml or 49% of the control. The variant protein N-71 produced a concentration dependent antimicrobial activity that was less than 1% of the control at a concentration of 28 μg/ml.
The variant lacritin proteins were tested at the concentrations shown in parentheses in μg/ml. Bacteria incubated with buffer alone (the PB control) produced an average of 161×10^3 CFU/ml. Incubation with the lacritin variant N-24 produced an average of 108×10^3 or […] of the control. […] The variant protein N-35 produced an average of 25×10^3 CFU/ml or 16% of the control and the variant N-45 produced an average of 42×10^3 CFU/ml or 26% of the control. These variants are active in antimicrobial activity killing 84% and 74% respectively of the bacteria under the conditions tested. The variant N-55 produced an average of 2×10^3 CPU/ml or 0.01% of the control, the variant N-65 produced an average of 6×10^3 CFU/ml or 0.04% of the control, and the variant N-71 produced an average of 1×10^3 CFU/ml or 0.01% of the control.

[5] = topical application to the eyes of rabbits; cited from earlier work
[6] = tested on: human salivary gland cells; conditions: recombinant lacritin produced in bacteria; cultured human salivary gland cells; cited from earlier work
[7] = tested on: E. coli ML-35; test: Inner membrane permeabilization, ONPG conversion by cytoplasmic β-galactosidase (FIG. 11); type: cell-based; conditions: 30 μg/ml; room temperature, 18 hours
Protocol: Inner Membrane Permeabilization. To examine the affect of Lacritin constructs on the inner membrane of gram negative bacteria, an enzymatic assay was conducted using a strain of permease-deficient E. coli, designated E. coli ML-35 (ATCC #43827) which also constitutively produces cytoplasmic βeta-galactosidase. E. coli ML-35 were grown in LB medium for 20 hours at 37° C. as a saturated overnight and then diluted with LB to an absorbance OD600 of 0.5. The cells were washed 3 times in 10 mM sodium phosphate buffer-10 mM NaCl (pH 7.2) and resuspended in 1 ml of the same buffer. The cells were then diluted 1:100 in 10 mM sodium phosphate buffer using two serial 10-fold dilutions. 70 μl of phosphate buffer, 30 μl of 30 mM βeta-galactosidase substrate ONPG (o-nitrophenyl-β-D-galactopyranoside) in 20 mM sodium phosphate buffer, 100 μl of cells in 10 mM sodium phosphate buffer and 50 μl of peptide sample were added to microtiter plate wells in duplicate. The production of ONP (o-nitrophenyl) from ONPG was measured over time using a spectrophotometer set at a wavelength of 415 nm.
Mature Lacritin (pLac) and various constructs of Lacritin were incubated with permease-deficient E. coli ML-35 at room temperature for 18 hours. The conversion of ONPG (o-nitrophenyl-β-D-galactopyranoside) to ONP (o-nitrophenyl) by cytoplasmic β-galactosidase was measured by a spectrophotometer at 415 nm. […]

[8] = tested on: Staphylococcus aureus; test: Colony forming unit antimicrobial assay against pathogenic bacteria (Table 3); type: cell-based; conditions: 26.3 μg/ml; 10 mM phosphate buffer, 3 hours
Protocol: as §1, §2

[9] = FIG. 5, concentrations only shown in the figure
[10] = FIG. 5, concentrations only shown in the figure, PB control 161×10^3 CFU/ml

Molecule: MKSIVEKSILLTEQALAKAGKGMHGGVPGGKQFIENGSEFAQKLLKKFSLLKPWA [Construct N-65]
- LC50 (lethal concentration required to kill 50 percent of E. coli) [1]: 5.5 µg/mL

Molecule: MSILLTEQALAKAGKGMHGGVPGGKQFIENGSEFAQKLLKKFSLLKPWA [Construct N-71]
- LC50 (lethal concentration required to kill 50 percent of E. coli) [1]: 8.0 µg/mL

Molecule: N-72: mature lacritin with 72 amino acids removed from the N-terminal (ILLTEQALAKAGKGMHGGVPGGKQFIENGSEFAQKLLKKFSLLKPWA; UniProt Q9GZZ8 92-138, looked up, fragment) [Construct N-72]
- LC50 (lethal concentration required to kill 50 percent of E. coli) [1]: 7.5 µg/mL

Molecule: N-73: mature lacritin with 73 amino acids removed from the N-terminal (LLTEQALAKAGKGMHGGVPGGKQFIENGSEFAQKLLKKFSLLKPWA; UniProt Q9GZZ8 93-138, looked up, fragment) [Construct N-73]
- LC50 (lethal concentration required to kill 50 percent of E. coli) [1]: 8.0 µg/mL

Molecule: N-80: mature lacritin with 80 amino acids removed from the N-terminal (AKAGKGMHGGVPGGKQFIENGSEFAQKLLKKFSLLKPWA; UniProt Q9GZZ8 100-138, looked up, fragment) [Construct N-80]
- LC50 (lethal concentration required to kill 50 percent of E. coli) [1]: Not Active

B1: N-35: mature lacritin with 35 amino acids removed from the N-terminal (protein, listed as Homo sapiens)
chain: METTTTAQETSAAAVQGTAKVTSSRQELNPLKSIVEKSILLTEQALAKAGKGMHGGVPGGKQFIENGSEFAQKLLKKFSLLKPWA
- Cell Death % [2]: 69%
- Cell Death % ([3]; 36.8 μg/ml): 95%
- % of the bacteria killed [4, 9]: 84%
- CFU as % of the control [4, 10]: 16%
- average colony forming units [4, 10]: 25×10^3 CFU/ml
- LC50 (lethal concentration required to kill 50 percent of E. coli) [1]: 1.5 µg/mL

B2: Lacritin: full length recombinant mature human lacritin without signal peptide, 119 amino acids, SEQ ID NO:27 (protein, listed as Homo sapiens)
chain: EDASSDSTGADPAQEAGTSKPNEEISGPAEPASPPETTTTAQETSAAAVQGTAKVTSSRQELNPLKSIVEKSILLTEQALAKAGKGMHGGVPGGKQFIENGSEFAQKLLKKFSLLKPWA
- tear production [5]: increases tear production
- cell growth [6]: promotes new cell growth
- inner membrane permeabilization (ONPG to ONP conversion, 415 nm) [7]: damage the cell membrane
- average colony forming units ([4]; FIG. 4, 46 μg/ml, 25 mM NaCl, buffer control 77×10^3 CFU/ml): 38×10^3 CFU/ml
- CFU as % of the control ([4]; FIG. 4, 46 μg/ml, buffer control 77×10^3 CFU/ml): 49%
- LC50 (lethal concentration required to kill 50 percent of E. coli) [1]: 11.0 µg/mL

B3: N-45: mature lacritin with 45 amino acids removed from the N-terminal (protein, listed as Homo sapiens)
chain: MAAAVQGTAKVTSSRQELNPLKSIVEKSILLTEQALAKAGKGMHGGVPGGKQFIENGSEFAQKLLKKFSLLKPWA
- Cell Death % ([3]; 23.0 μg/ml): 99%
- Cell Death % [8]: 58%
- % of the bacteria killed [4, 9]: 74%
- CFU as % of the control [4, 10]: 26%
- average colony forming units [4, 10]: 42×10^3 CFU/ml
- LC50 (lethal concentration required to kill 50 percent of E. coli) [1]: 1.0 µg/mL

From patent US20090312252A1, “Antimicrobial Activity in Variants of Lacritin” (priority 2006, published 2009)
